Data from US10260068B2, “Prophylactic agent and therapeutic agent for fibrodysplasia ossificans progressiva” (Sumitomo Dainippon Pharma Co., Ltd., priority 2014, dated 2019).

T1: wild type ACVR1 (Homo sapiens, UniProt Q04771)
T1 construct: an iPS cell line with the ACVR1 gene mutation repaired to the normal type (wild type) by gene repair by a BAC knockin vector; endogenous in cells; host or cells: mesenchymal stem cell-like cells differentiated from the gene-corrected iPS cell clone
T1 sequence (Q04771 21-509): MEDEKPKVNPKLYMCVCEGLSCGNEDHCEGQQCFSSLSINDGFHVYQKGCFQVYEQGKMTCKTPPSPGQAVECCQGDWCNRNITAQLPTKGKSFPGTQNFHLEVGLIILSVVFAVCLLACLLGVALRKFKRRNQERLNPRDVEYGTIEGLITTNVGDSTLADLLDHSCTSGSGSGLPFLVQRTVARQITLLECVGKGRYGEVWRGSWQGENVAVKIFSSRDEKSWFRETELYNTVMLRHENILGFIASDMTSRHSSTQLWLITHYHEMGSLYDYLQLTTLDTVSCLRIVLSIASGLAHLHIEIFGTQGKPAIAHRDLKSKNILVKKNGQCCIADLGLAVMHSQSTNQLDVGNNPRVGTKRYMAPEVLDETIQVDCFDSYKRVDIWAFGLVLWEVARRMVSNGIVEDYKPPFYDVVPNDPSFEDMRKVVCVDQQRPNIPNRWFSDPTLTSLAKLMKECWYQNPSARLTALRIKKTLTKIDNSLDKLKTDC


What was measured:
wild type ACVR1 = molecular target: T1, wild type ACVR1; test: Luciferase reporter (BMP responsive sequence) transcription activity in gene-corrected clone derived cells; type: cell-based; details: ligand 1, 10, 100 ng/mL, 16 hours
From the text: Following the method of Yamanaka et al. (Cell, 2007, 131 (5), […]), FOP patient-derived iPS cells (hereunder also referred to as “patient-derived iPS cell line”) were established. The patient cells were confirmed to be cells having a typical FOP-associated mutation in the ACVR1 gene. The mutation is a substitution of the 206th arginine residue of the amino acid sequence of ACVR1 (the amino acid sequence listed as SEQ ID NO: 10) with a histidine residue. Next, for use as a control, an iPS cell line with the ACVR1 gene mutation repaired to the normal type (wild type) by gene repair by a BAC knockin vector (hereunder also referred to as “gene-corrected iPS cell clone” or “gene-rescued iPS cell clone”) was established.
The patient-derived iPS cell line and gene-corrected iPS cell line were cultured on the matrix of a Matrigel coated plate (trade name: Growth Factor Reduced (GFR)BD Matrigel® by Becton & Dickinson), using mTeSR1 (Stem Cell Technologies) for 2 days under feeder-free conditions. Next, using serum-free medium [F12 Nutrient Mixture (product of Gibco)/Iscove's Modified Dulbecco's Medium (IMDM) (product of Sigma-Aldrich Japan, KK.)/0.5% bovine serum albumin (BSA) (product of Sigma-Aldrich Japan, KK.)/1% Chemically Defined Lipid (CD-Lipid) (product of Gibco, trade name: Chemically Defined Lipid Concentrate)/15 μg/mL apotransferrin (product of Sigma-Aldrich Japan, KK., trade name: apo-Transferrin human)/7 μg/mL insulin (product of Wako Pure Chemical Industries, Ltd., trade name: Insulin, Human, recombinant)/0.45 mM 1-Thioglycerol (product of Sigma-Aldrich Japan, KK.)] with addition of 10 μM SB-431542 (product of Selleck Chemicals) and 1 μM CHIR99021 (product of Wako Pure Chemical Industries, Ltd.), the patient-derived iPS cell line and gene-corrected iPS cell line were further cultured for 1 week under feeder-free conditions for differentiation to neural crest cells. […]
After mixing Firefly luciferase reporter plasmid having the BMP responsive sequence in the promoter region (J. Biol. Chem., 2002, 277(7), 4883-4891) and a plasmid having a nucleic acid sequence coding for Renilla luciferase downstream from CMV promoter, as an internal standard (product of Promega Corp., trade name: phRL-CMV Vector), FuGene® HD (Promega Corp.) was used for transfection into the mesenchymal stem cell-like cells. […] Next, the luciferase activity was measured according to the protocol provided with a Dual-Glo Luciferase Assay System (product of Promega Corp.). The luminescence was detected using an EnVision Multilabel Counter (product of Perkin-Elmer). […]

mutant ACVR1 = test: ID1 gene promoter luciferase reporter in U2OS cells with transfer of mutant ACVR1; type: cell-based, human; details: U2OS cells with transfer of each mutant ACVR1 of Table 1; 10 ng/mL, 20 hours
Procedure: A Firefly luciferase reporter plasmid having the promoter region of the ID1 gene, as a typical downstream gene of BMP (Genes Cells. 2002 September; 7(9):949-60), was mixed with a plasmid including different mutant ACVR1 genes reported to elicit FOP, and FuGene HD was used on U2OS cells for transfection. At 1 hour after transfection, human activin A (final concentration: 10 ng/mL) was added and the transfected cells were cultured for 20 hours. Next, the luciferase activity was measured according to the protocol provided with a Bright-Glo Luciferase Assay System (product of Promega Corp.). In FIG. 8, each sample name is listed according to Table 1 above, based on the amino acid mutation of ACVR1.

[1] = system: gene-corrected clone derived cells; test: Differentiation to chondrocytes (sulfated glycosaminoglycan assay) of gene-corrected clone derived cells; type: cell-based, human; details: 100 ng/mL BMP-7 or 1 ng/mL TGF-β3, 6 days, vs untreated group
Procedure: Mesenchymal stem cell-like cells from a patient iPS cell line and a gene-corrected iPS cell clone were each prepared by the same method as Example 1. The mesenchymal stem cell-like cells were cultured for 6 days under the medium conditions used in the method of Umeda et al. (Sci. Rep., 2012, 2, 455), for differentiation to chondrocytes. During differentiation, 100 ng/mL of human activin A, 100 ng/mL of human BMP-7 or 1 ng/mL of human TGF-β3 (product of R&D Systems, Inc., trade name: Recombinant Human TGF-beta 3) was added and the effect of each factor on differentiation to chondrocytes was examined. The extent of differentiation to chondrocytes was measured with Alcian blue dye and a sulfated glycosaminoglycan assay kit (product of Biocolor, Ltd., trade name: Blyscan Glycosaminoglycan Assay Kit). In FIG. 4, the bar graph indicates the mean values for each treated group, and the error bars represent S.D.

Row | Molecule | transcription activity via ACVR1 (firefly/Renilla luciferase activity, BMP responsive sequence) (wild type ACVR1) | transcription activity via ACVR1 (ID1 gene promoter luciferase) (mutant ACVR1) | cartilage induction (sulfated glycosaminoglycan assay) [1]
1 | human activin A: Recombinant Human/Mouse/Rat Activin A (R&D Systems); homodimer of inhibin βA chains | not seen | increased | –
2 | BMP-7: Recombinant Human BMP-7 (R&D Systems); cytokine of the BMP family (protein) STGSKQRSQNRSKTPKNQEALRMANVAENSSSDQRQACKKHELYVSFRDLGWQDWIIAPEGYAAYYCEGECAFPLNSYMNATNHAIVQTLVHFINPETVPKPCCAPTQLNAISVLYFDDSSNVILKKYRNMVVRACGCH | increased in a concentration-dependent manner | – | significantly enhanced
